In paper PMC5964570:

Biological target: Angiotensin I converting enzyme (ACE) from rabbit lung (rabbit) (UniProt P12822)
UniProt P12822, sequence (P12822 34-1310): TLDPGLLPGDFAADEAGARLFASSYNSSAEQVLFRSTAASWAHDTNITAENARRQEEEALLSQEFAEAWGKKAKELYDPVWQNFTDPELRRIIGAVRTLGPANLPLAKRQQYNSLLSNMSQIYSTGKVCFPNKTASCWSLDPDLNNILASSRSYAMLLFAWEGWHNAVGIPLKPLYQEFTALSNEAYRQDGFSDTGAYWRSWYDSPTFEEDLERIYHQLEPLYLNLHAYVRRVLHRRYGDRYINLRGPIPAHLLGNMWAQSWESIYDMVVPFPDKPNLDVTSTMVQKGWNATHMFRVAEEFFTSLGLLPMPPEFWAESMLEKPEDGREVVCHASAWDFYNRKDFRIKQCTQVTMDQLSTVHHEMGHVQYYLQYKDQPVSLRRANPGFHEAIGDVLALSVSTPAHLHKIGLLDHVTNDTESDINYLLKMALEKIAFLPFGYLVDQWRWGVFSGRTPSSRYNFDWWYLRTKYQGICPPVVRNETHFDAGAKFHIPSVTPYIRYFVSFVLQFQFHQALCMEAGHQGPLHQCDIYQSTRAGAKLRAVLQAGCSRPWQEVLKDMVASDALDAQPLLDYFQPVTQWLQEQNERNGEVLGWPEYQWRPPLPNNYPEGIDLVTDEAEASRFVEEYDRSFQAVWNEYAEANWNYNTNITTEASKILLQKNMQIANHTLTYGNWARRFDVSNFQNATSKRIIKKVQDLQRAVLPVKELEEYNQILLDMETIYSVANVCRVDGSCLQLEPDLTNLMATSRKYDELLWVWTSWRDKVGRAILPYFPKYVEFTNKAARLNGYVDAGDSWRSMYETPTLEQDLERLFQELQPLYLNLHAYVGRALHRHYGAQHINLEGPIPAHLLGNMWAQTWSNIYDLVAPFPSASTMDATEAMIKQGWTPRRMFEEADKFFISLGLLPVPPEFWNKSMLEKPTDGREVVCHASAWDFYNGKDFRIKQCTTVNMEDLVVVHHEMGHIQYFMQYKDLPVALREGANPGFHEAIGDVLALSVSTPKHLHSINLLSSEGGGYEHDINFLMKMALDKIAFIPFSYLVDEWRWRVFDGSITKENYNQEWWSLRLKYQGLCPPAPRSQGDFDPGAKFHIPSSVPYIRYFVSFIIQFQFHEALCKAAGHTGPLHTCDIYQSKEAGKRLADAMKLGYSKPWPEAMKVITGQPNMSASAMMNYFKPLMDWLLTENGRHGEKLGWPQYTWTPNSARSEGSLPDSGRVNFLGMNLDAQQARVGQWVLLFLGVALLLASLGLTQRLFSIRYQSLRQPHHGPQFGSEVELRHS

IC50 of inhibition of ACE activity (hippuric acid released from Hip-His-Leu, RP-HPLC; 50 mM HEPES, 360 mM NaCl, pH 8.3, 37°C) | Substance
476 μM | Cys-Arg (peptide)
4.37 μM | Cys-Cys (peptide)
13.8 μM | Cys-Phe (peptide)
